# From publication doi:10.1101/2021.05.11.443575
# Columns and labels:
# [1] = molecular target: FLAG-PfDdi1 (recombinant full length PfDdi1 with N-terminal FLAG tag) (P. falciparum); assay: native MS
# [2] = molecular target: FLAG-PfDdi1^D262N (recombinant full length catalytically inactive PfDdi1 with N-terminal FLAG tag) (P. falciparum); assay: native MS
Substance,stoichiometry N [1],stoichiometry N [2]
FLAG-PfDdi1 (recombinant full length PfDdi1 with N-terminal FLAG tag) (enzyme),2,
FLAG-PfDdi1^D262N (recombinant full length catalytically inactive PfDdi1 with N-terminal FLAG tag) (enzyme),,2
